Measured values published in paper PMC2818508.

Key:
[1] = molecular target: Rac2 (prenylated Rac-GTP) (UniProt P15153); assay: liposome co-sedimentation, WAVE2 quantified; conditions: reference: WAVE2 complex, not PP2A treated
prenylated Rac2-GTP = prenylated Rac2-GTP (UniProt P15153); assay: co-sedimentation

**Q.** “WAVE2 (from UniProt Q9Y6W5) PP2A treated WAVE2 complex” was tested. Which “other: % of total WAVE2 bound” value [1] did it give?
**A.** The value was “same; reference 56”.

**Q.** Which % bound (of total WAVE2) (prenylated Rac2-GTP) does the source give for “WAVE2 complex, PP2A treated (from UniProt Q9Y6W5 1-498; Q96F07 1-1278; Q9Y2A7 1-1128; Q8IZP0 1-508; Q8WUW1 1-75)” here?
**A.** The % bound (of total WAVE2) was 55%.

**Q.** And the % bound (of total WAVE2; PIP3 liposomes + Rac-GTP) (prenylated Rac2-GTP)?
**A.** Its % bound (of total WAVE2; PIP3 liposomes + Rac-GTP) is 79%.
